In patent US20190060453A1 (ONCOMED PHARMACEUTICALS, published 2019):
Changes are numbered by the printed parent chain.

Tests used:
[1] = target: T1, DLL4 antigen protein (recombinant fragment of the extracellular domain of human DLL4, amino acids 1-522, Fc- … (human, UniProt Q9NR61 27-522)); experiment: Biacore; antibody purified by protein A; DLL4 form and format not stated
T1 construct: also called Human DLL4 Antigen; not shown: human Fc-tag or histidine-tag

[2] = target: T1, DLL4 antigen protein (recombinant …); experiment: ELISA of conditioned medium, HEK293 cells
Excerpt: These heavy chains were cotransfected into HEK293 cells with L2, and conditioned media was again assayed.

[3] = target: T2, human DLL4 aa 1-96 fused to Fc (human, UniProt Q9NR61 27-96); experiment: ELISA, Fc fusion captured by anti-human Fc
T2 construct: Printed as aa 1-96; not shown: Fc protein (human Fc by the capture and detection reagents)
Procedure: (§1) To identify antibodies that recognize specific regions of the DLL4 extracellular domain, epitope mapping was performed. Mammalian expression plasmid vectors comprising a CMV promoter upstream of polynucleotides that encode a nested series of deletion fragments of the extracellular domain of DLL4 fused to Fc protein were generated using standard recombinant DNA technology. Additional constructs that encoded fragments of DLL4 that were chimera of human and mouse DLL4 fused to Fc protein were also generated using standard recombinant DNA technology. A further series of DLL4-fc fusion proteins were designed that included specific amino acid substitutions. These recombinant fusion proteins were expressed in transiently transfected HEK 293 cells from which conditioned medium was collected twenty-four to forty-eight hours post-transfection for ELISA. The DLL4 fusion protein fragments were captured on plates coated with anti-human Fc antibodies. Anti-DLL4 antibodies were then allowed to interact with the bound DLL4 fragments and binding was measured by subsequent incubation with HRP conjugated anti-mouse antibody and detection of HRP activity (FIG. 3A). […] Additionally, anti-DLL4 mAbs were examined for binding to DLL4 fusion protein fragments by western blot analysis (FIG. 3B).

[4] = target: T3, human DLL4 aa 1-154 fused to Fc (human, UniProt Q9NR61 27-154); experiment: ELISA, Fc fusion captured by anti-human Fc
T3 construct: predicted signal peptide 1-26 left out; also called h-DLL4 dom1-2; not shown: Fc protein
Procedure: as §1

[5] = target: T4, human DLL4 aa 1-217 fused to Fc (human, UniProt Q9NR61 27-217); experiment: ELISA, Fc fusion captured by anti-human Fc
T4 construct: predicted signal peptide 1-26 left out; also called hDLL4dom1-3; not shown: Fc protein
Procedure: as §1

[6] = target: T5, human DLL4 aa 1-251 fused to Fc (human, UniProt Q9NR61 27-251); experiment: ELISA, Fc fusion captured by anti-human Fc
T5 construct: Predicted signal peptide 1-26 left out; also called aa 1-251 (printed as 1-251); not shown: Fc protein
Procedure: as §1

[7] = target: T6, human DLL4 aa 1-283 fused to Fc (human, UniProt Q9NR61 27-283); experiment: ELISA, Fc fusion captured by anti-human Fc
T6 construct: Predicted signal peptide 1-26 left out; not shown: Fc protein
Procedure: as §1

[8] = target: T7, human DLL4 aa 1-323 fused to Fc (human, UniProt Q9NR61 27-323); experiment: ELISA, Fc fusion captured by anti-human Fc
T7 construct: Predicted signal peptide 1-26 left out; also called aa 1-323 (printed as 1-323); not shown: Fc protein
Procedure: as §1

murine DLL4-Fc = target: T8, murine DLL4-Fc (murine, UniProt Q9JI71 27-525, limits assumed); experiment: FACS-based assay with human or murine DLL4-Fc (FIG. 2B)
T8 construct: also called m-DLL4; not shown: Fc
Excerpt: Binding was detected by fluorescently labeled anti-Fc and analyzed by FACS, with high fluorescence intensity indicative of binding between DLL4 and Notch1 expressing cells.

[9] = target: T9, human DLL4, full-length, on the surface of transfected cells (human, UniProt Q9NR61 27-685); experiment: FACS on HEK 293 cells co-transfected with full-length DLL4 and GFP
T9 construct: whole, on cells; HEK 293 cells (transient with GFP, or stably transduced) and 3T3 cells overexpressing human DLL4; also called native cell-surface DLL4 protein; Delta-like ligand 4

[10] = target: T1, DLL4 antigen protein (recombinant …); experiment: ELISA of conditioned medium, HEK 293 cells cotransfected with the murine 21M18 light chain
Procedure: The functionality of each candidate variant humanized heavy and light chain was tested by cotransfection into mammalian cells.

T8 sequence (Q9JI71 27-525 limits assumed): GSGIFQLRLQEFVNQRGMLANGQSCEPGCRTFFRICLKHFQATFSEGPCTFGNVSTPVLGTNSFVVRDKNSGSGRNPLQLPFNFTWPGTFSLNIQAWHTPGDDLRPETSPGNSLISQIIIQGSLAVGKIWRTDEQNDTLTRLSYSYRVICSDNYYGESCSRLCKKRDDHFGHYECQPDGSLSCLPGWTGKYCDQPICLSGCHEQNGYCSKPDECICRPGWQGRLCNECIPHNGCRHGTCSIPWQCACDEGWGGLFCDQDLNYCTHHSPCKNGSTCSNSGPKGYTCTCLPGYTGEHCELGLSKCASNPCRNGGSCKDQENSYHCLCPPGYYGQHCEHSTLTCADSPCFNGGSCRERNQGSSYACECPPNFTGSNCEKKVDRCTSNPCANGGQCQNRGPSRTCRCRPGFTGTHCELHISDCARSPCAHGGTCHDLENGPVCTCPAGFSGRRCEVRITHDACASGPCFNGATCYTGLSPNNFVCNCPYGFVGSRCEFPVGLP

B1: humanized 21M18 variant H2L2 (antibody, V domains shown)
VH: QVQLVQSGAEVKKPGASVKISCKASGYSFTAYYIHWVKQAPGQGLEWIGYISCYNGATNYNQKFKGRVTFTTDTSTSTAYMELRSLRSDDTAVYYCARDYDYDVGMDYWGQGTLVTVSS
VL: DIVMTQSPDSLAVSLGERATISCRASESVDNYGISFMKWFQQKPGQPPKLLIYAASNQGSGVPDRFSGSGSGTDFTLTISSLQAEDVAVYYCQQSKEVPWTFGGGTKVEIK
notes: also called 21M18 H2L2; 21M18 H2 with 21M18 L2
Kd [1]: ~0.33 nM

B2: humanized 21M18 H7L2 (antibody, human IgG2, V domains shown)
VH: B1 VH with C53S
VL: B1 VL
notes: Variant of H2 with Kabat 52a Cys changed to Ser; also called H7L2 21M18; ATCC PTA-8425
binding result [2]: binds

B3: humanized 21M18 H9L2 (antibody, human IgG2, V domains shown)
VH: B1 VH with C53V
VL: B1 VL
notes: Variant of H2 with Kabat 52a Cys changed to Val; also called ATCC PTA-8427
binding result [2]: binds

B4: murine monoclonal antibody 21M18 (antibody, V domains shown)
VH: EVQLQQSGPELVKTGASVKISCKASGYSFTAYYIHWVKQSHGKSLEWIGYISCYNGATNYNQKFKGKATFTVDTSSSTAFMQFNSLTSEDSAVYYCARDYDYDVGMDYWGQGTSVTVSS
VL: not shown
notes: Hybridoma-derived mouse antibody; both are alignment entries; also called m21M18; anti-DLL4 21M18
binding result [3]: no binding | binding result [4]: no binding | binding result [5]: binds | binding result [6]: binds | binding result [7]: binds | binding result [8]: binds | binding result (murine DLL4-Fc): no binding | binding result [9]: binds

B5: 21M18 H2 humanized heavy chain cotransfected with the murine 21M18 light chain (antibody, V domains shown)
VH: B1 VH
VL: not shown
notes: Tested as conditioned medium of HEK 293 cells; heavy chain on human IgG2 constant region; also called 21M18 H2 (with murine 21M18 light chain)
binding result [10]: binds
